The results in this text go back to patent publication US20240400677A1.

The target of assay [1] is human SIRPγ on primary human T-cells (human) (UniProt Q9P1W8). Nature of the assay: flow cytometry, anti-CD3/CD28-stimulated human CD8+ T cells.
For assay [2] the target is unchanged. Description: flow cytometry, naive resting human CD4+ T cells. A general note: Flow cytometry measures light scatter and fluorescence of single cells or particles in a stream.
The target is the same in assay [3]. Description: flow cytometry, naive resting human CD3+ T cells.
Assay [4] shares this target. Description: flow cytometry, anti-CD3/CD28-stimulated human CD3+ T cells.
Assay [5] has the same target. Nature of the assay: flow cytometry, anti-CD3/CD28-stimulated human CD4+ T cells.
Assay [6] has the same target. Description: flow cytometry, naive resting human CD8+ T cells.

By EC50 (read off the curve) is commonly meant the concentration at which the effect is half-maximal.

human SIRPγ on primary human T-cells (human), sequence (Q9P1W8 29-387 limits assumed): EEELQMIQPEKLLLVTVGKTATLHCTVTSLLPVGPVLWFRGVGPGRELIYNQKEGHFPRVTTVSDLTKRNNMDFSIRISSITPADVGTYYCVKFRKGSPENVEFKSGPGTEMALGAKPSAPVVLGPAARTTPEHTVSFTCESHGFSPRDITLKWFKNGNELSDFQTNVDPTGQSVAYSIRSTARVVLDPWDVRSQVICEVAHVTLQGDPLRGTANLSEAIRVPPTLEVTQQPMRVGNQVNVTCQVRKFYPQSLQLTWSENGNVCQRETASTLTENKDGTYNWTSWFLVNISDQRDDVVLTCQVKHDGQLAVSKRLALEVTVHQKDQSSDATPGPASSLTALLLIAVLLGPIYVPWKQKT

Consider “mouse monoclonal antibody against human SIRPγ, clone OX-119 (ThermoFisher Scientific MA5-28215)”, for which the EC50 (read off the curve) in assay [1] worked out at 0.1 µg/mL; in assay [2] it was 0.04 µg/mL; in assay [3] it was 0.2 µg/mL; in assay [4], 0.4 µg/mL; in assay [5], 0.05 µg/mL; in assay [6] it was 0.09 µg/mL.
